T1: human FGFR1 beta (IIIc)-Fc (R&D Systems) (human, UniProt P11362-14 22-285, limits assumed)
T1 construct: Bought reagent; also called FGFR1-Fc; soluble FGFR1-Fc; not shown: Fc domain, detected with anti-Human IgG
T1 sequence (looked up): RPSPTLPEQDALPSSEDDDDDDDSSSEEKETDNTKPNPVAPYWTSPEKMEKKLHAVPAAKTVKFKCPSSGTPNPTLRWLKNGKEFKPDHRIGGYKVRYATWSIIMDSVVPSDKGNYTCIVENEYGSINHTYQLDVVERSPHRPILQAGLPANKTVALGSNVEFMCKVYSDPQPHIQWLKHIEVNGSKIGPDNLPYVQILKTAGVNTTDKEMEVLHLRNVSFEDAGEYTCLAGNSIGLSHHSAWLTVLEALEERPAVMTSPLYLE


Columns and labels:
[1] = biological target: T1, human FGFR1 beta (IIIc)-Fc (R&D Systems); assay: flow cytometry on yeast displaying the peptide, stained for c-myc and FGFR1-Fc
Procedure: FIG. 15. Non-binding of peptide artifacts to FGFR1-Fc. Yeast cells expressing RTTTS or HTTS peptides on their cell surface were incubated with 10 nM FGFR1-Fc. Cells were stained with fluorescent antibodies for expression (α-c-myc) and binding (α-FGFR1-Fc).
50,000 induced yeast cells were incubated with various concentrations of FGFR1-Fc in phosphate-buffered saline with 1 g/L BSA (PBSA) at room temperature. Cells were incubated in sufficiently large volumes to avoid ligand depletion and long enough times (typically 3 to 24 hours) to reach equilibrium. During the last 30 minutes of incubation, yeast cells were incubated with 1:2500 dilution of chicken anti-c-Myc (Invitrogen) in PBSA. Yeast were pelleted, washed, then incubated with 1:200 dilution of secondary antibodies on ice for 10 min: anti-Human IgG-FITC (Sigma Aldrich) against FGFR1-Fc and anti-chicken-IgY-PE (Santa Cruz Biotechnology) against anti-c-myc. Yeast were washed, pelleted, and resuspended in PBSA immediately before analysis by flow cytometry using EMD Millipore Guava EasyCyte. Flow cytometry data were analyzed using FlowJo (v7.6.1). Binding curves were plotted and Kd values were obtained using GraphPad Prism 6.

[2] = biological target: T2, Met-Fc fusion protein (R&D Systems) labeled with Alexa 488 (UniProt P08581 25-932, Alexa 488 label); assay: flow cytometry, yeast display, after heating to varying temperatures
T2 construct: Bought reagent; also called Met-Fc A488; soluble Met-Fc; not shown: Fc domain
T2 sequence (P08581 25-932 limits assumed): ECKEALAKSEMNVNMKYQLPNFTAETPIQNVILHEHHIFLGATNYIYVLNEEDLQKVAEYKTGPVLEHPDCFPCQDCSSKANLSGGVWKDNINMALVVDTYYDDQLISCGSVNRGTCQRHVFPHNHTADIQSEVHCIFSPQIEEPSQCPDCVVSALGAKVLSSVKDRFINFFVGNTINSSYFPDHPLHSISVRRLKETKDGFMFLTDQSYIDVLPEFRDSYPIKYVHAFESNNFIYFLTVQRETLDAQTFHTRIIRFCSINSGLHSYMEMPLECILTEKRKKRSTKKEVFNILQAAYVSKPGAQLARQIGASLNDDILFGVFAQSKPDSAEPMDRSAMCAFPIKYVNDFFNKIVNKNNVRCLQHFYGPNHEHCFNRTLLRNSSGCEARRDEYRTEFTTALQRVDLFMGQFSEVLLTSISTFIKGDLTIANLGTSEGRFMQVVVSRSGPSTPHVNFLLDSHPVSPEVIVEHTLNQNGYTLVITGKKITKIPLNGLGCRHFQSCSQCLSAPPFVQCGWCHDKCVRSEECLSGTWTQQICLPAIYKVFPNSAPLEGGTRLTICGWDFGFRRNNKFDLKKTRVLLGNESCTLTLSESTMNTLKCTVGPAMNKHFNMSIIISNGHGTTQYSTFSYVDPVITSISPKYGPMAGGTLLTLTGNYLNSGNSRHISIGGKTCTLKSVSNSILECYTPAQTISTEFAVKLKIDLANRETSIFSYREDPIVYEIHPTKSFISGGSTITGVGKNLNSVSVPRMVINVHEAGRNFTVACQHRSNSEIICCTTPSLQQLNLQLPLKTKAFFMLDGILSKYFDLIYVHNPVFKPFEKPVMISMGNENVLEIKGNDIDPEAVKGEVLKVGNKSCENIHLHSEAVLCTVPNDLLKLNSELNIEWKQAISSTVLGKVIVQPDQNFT

[3] = biological target: Met receptor on MDCK cells; assay: cell-based or functional assay
Sequence of Met receptor on MDCK cells (Q75ZY9 whole entry): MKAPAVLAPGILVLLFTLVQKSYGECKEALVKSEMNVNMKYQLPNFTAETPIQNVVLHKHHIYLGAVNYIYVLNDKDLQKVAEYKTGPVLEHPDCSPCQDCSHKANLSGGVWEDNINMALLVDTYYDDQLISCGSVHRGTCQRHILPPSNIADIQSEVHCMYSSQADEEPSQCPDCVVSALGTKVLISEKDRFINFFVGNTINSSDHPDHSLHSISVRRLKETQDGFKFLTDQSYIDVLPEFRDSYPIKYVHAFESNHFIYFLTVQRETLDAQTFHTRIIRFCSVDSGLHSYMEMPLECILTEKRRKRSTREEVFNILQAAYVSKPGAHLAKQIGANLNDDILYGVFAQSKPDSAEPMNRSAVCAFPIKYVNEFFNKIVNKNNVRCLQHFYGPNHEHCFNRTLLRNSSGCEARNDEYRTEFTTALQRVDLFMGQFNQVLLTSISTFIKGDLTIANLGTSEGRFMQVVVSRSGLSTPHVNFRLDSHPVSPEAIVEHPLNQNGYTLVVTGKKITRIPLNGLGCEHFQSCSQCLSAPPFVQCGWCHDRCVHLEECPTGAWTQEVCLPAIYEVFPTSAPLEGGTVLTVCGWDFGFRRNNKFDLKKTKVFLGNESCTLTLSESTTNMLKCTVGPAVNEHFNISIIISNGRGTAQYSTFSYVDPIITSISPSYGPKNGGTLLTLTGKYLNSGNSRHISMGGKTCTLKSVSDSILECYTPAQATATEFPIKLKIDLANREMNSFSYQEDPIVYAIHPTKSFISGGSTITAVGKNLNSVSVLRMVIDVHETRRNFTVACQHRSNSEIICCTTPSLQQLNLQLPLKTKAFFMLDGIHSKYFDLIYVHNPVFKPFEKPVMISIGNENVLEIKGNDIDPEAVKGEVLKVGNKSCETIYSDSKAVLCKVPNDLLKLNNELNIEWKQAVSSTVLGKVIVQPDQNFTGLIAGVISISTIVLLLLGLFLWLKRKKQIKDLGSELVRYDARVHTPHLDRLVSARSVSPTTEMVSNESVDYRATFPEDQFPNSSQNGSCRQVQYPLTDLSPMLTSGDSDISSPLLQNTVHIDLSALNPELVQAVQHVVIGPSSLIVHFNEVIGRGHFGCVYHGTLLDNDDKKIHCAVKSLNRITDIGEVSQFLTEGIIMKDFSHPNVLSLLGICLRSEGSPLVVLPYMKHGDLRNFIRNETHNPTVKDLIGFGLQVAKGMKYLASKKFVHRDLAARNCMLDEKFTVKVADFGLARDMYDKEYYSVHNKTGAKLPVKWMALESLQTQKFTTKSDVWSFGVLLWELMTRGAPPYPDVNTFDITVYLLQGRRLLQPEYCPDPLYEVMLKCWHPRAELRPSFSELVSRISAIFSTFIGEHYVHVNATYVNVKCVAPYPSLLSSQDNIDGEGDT

Row | Binder | binding result [1] | binding result [2] | further results
1 | HTTS (also called peptide artifact) [HTTS peptide displayed on yeast] | no binding (tested: 10 nM FGFR1-Fc) | – | –
2 | RTTTS (also called peptide artifact) [RTTTS peptide displayed on yeast] | no binding (tested: 10 nM FGFR1-Fc) | – | –
3 | NK1 mutant M2.1 displayed on yeast (ligand, Yeast display fusion as for m10) YAEGQRKRRNTIHEFKKSAKTTLIKIDPALKIKTEKVNTADQCANRCTRNKGLPFTCKAFVFDKARKQCLWFPFNSMSSGVKKEFGHEFDLYENKDYIRDCIIGKGRSYRGTVSITKSGIKCQPWSSMIPHEHSFLPSSYRGEDLQENYCRNPRGEEGGPWCFTSDPEVRYEVCDIPQCSEVE | – | binds | –
4 | NK1 mutant M2.2 displayed on yeast (ligand, Yeast display fusion as for m10) YAEGQRKRRNTIHEFKKSAKTTLIKIDPALKIKTEKVNTADQCANRCTRNKGLPFTCKAFVFDKARKRCLWFPFNSMSSGVKKEFGHEFDLYENKDYIRDCIIGNGRSYRGTVSITKSGIKCQPWSSMIPHEHSFLPSSYRGEDLRENYCRNPRGEEGGPWCFTSDPEVRYEVCDIPQCSEVE | – | binds | –
5 | Aras-4 (ligand) YAEGQGKRRNTIHEFKKSAKTTLIKIDPALRIKTEKANTADQCANRCTRSKGLPFTCKAFVFDKARKRCLWFPFNSMSSGVKKEFGHEFDLYENKAYIRDCIIGRGRNYRGTVSITKSGIKCQPWSAMIPHEHSFLPSSYRGEDLRENYCRNPRGEEGGPWCYTSDPEVRYEVCDIPQCSEVE | – | – | inhibition of HGF-induced activation of Met, concentration against M2.2 D127A or NK1 N127A [3]: ~5 fold lower concentration

Source: US20220023385A1 (Stanford University, published 2022)
